Laboratory results from patent US20250018014A1, “METHOD FOR TREATING AND/OR PREVENTING REGNASE-1-RELATED DISEASE” (OSAKA UNIVERSITY, priority 2018, published 2025).
Entries after “also recorded” stand apart in the source; their conditions may differ.

T1: FL_Reg1 (human full-length Regnase-1) (Homo sapiens, UniProt Q5D1E8)
T1 construct: made in house; host or cells: Expi293 cells
T1 sequence (Q5D1E8 1-599): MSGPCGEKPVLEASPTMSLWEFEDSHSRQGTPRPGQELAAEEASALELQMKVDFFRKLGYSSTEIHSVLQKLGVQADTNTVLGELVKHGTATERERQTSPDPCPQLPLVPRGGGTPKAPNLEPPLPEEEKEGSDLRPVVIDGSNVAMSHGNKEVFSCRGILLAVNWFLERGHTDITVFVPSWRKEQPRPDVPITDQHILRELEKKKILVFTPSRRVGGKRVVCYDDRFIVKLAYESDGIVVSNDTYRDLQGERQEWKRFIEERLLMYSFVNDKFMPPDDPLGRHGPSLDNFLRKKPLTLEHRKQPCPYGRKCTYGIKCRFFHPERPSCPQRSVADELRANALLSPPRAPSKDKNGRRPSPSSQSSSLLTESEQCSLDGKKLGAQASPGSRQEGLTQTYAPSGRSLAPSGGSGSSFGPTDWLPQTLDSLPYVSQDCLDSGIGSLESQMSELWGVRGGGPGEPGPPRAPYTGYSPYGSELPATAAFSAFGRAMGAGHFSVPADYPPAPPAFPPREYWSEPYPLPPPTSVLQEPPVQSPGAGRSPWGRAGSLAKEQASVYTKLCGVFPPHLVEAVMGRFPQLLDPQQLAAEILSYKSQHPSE

T2: Regnase-1 phosphorylation by IKKβ (Homo sapiens, UniProt Q5D1E8)
T2 construct: GST (N, cleaved yes); made in house; host or cells: Expi293 cells
T2 sequence (Q5D1E8 1-599): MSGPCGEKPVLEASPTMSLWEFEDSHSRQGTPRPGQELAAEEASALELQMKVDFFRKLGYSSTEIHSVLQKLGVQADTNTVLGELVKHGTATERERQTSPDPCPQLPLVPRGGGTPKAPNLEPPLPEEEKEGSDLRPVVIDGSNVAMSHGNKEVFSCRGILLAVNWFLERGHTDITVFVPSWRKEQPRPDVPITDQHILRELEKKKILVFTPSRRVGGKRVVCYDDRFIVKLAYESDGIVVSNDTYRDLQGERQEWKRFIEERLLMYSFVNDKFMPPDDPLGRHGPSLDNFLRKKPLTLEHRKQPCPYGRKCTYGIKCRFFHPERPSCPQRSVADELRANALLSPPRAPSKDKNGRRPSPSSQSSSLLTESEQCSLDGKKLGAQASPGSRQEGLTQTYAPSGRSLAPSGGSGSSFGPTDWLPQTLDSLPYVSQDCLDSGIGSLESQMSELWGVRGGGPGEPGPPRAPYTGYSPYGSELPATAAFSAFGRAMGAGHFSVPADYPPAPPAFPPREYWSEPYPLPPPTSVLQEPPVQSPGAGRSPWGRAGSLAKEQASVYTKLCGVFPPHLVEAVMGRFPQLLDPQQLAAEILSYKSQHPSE


What was measured:
[1] = system: Regnase-1 phosphorylation upon IL-17A stimulation in MEF; test: Immunoblot analysis of Regnase-1 in wild-type MEFs stimulated with IL-17 in the presence of BX795; assay type: cell-based, mouse; details: BX795 (50 μM)
From the text: The two arrows indicate the phosphorylated form (upper) and unphosphorylated form (lower) of Regnase-1.
To identify the kinase responsible for Regnase-1 phosphorylation in the IL-17A signaling pathway, the inventors investigated a series of MEFs lacking TBK1, IKKi, TBK1/IKKi, Act1, IKKa/IKKβ, or IRAK1/IRAK2. […] To investigate whether TBK1 and IKKi directly phosphorylate Regnase-1, the present inventors prepared recombinant Regnase-1 purified from a MEF cell line stably expressing FLAG-tagged Regnase-1. Phosphorylation of recombinant Regnase-1 by recombinant TBK1 and/or IKKi under in vitro conditions was detected as an electrophoretic mobility shift pattern by immunoblotting and ^32P autoradiography (FIG. 12-2D). […] The phosphorylation pattern of Regnase-1 by IRAK appeared to be similar to that by TBK1 and IKKi, but Regnase-1 phosphorylation occurred in IRAK1/IRAK2 double-deficient MEF (FIG. 12-2E). In contrast, Regnase-1 phosphorylation in response to IL-1β occurred in TBK1/IKKi double-deficient MEF (FIG. 12-3J).

[2] = system: appearance of non-phosphorylated Regnase-1 in MEF; test: Immunoblot analysis of Regnase-1 in MEFs during the recovery phase after IL-17A stimulation; assay type: cell-based, mouse; details: after IL-17A (50 ng/ml) one hour; cycloheximide and okadaic acid (0.5 μM)
Protocol: Total mRNA was prepared from cells treated with doxycycline for 0 to 4 hours, and then subjected to Northern blotting using [^32P] labelled probes. […] Cells were treated with IL-17A (50 ng/ml) for one hour, and subsequently incubated in a medium with no additives (control), a medium containing cycloheximide (100 μM), or a medium containing both cycloheximide and okadaic acid (0.5 μM) for 0 to 240 minutes. […] The qPCR data (A, B, and E) were collected from four independent experiments. The error bars represent mean±SEM. ***P<0.005.
Next, the present inventors investigated the mechanism of target mRNA suppression in Regnase-1AA/AA cells. As described above, suppression of target mRNA is more enhanced at later stages of IL-17A stimulation. The present inventors used immunoblot analysis of phosphorylated and non-phosphorylated Regnase-1 during the recovery phase after the completion of IL-17A stimulation. […] The increase in the amount of non-phosphorylated Regnase-1 protein was enhanced much more strongly in Regnase-1AA/AA MEF than in wild type cells.

[3] = system: IL-6 mRNA stability in Regnase-1AA/AA MEF; test: qPCR analysis of IL-6 mRNA levels in Regnase-1AA/AA MEFs after TNF-α and IL-17A, with ActD; assay type: cell-based, mouse; details: ActD and okadaic acid (0.5 μM)
[4] = target: T3, Peptide 1 ([…]), partial peptide of human Regnase-1 (Homo sapiens, UniProt Q5D1E8); test: Binding of anti-non-phosphorylated Regnase-1 peptide antibodies to bead-bound Peptide 1 (iQue screener); details: streptavidin-immobilized beads; histograms FIG. 32
T3 construct: […], biotin-conjugated peptide; made in house; host or cells: chemical synthesis
Protocol: (§1) • Biotin-Conjugated FL_Reg1, Biotin-Conjugated Peptide • […], biotin-conjugated peptide • AFPPREYWSEPYPLPPPTC-NH2, and biotinylated BSA (Sigma, A8549) were each bound to streptavidin-immobilized beads.
(§2) These beads were mixed with each anti-Regnase-1 antibody, and they were allowed to react. Thereafter, Anti-Rabbit IgG1 Alexa488 (molecular probes, A21244) was mixed and reacted, and analysis was performed with iQue screener PLUS (intellicyt). Data was analyzed with FlowJo ver10.

[5] = target: T1, FL_Reg1 (human full-length Regnase-1); test: Binding of anti-non-phosphorylated Regnase-1 peptide antibodies to bead-bound full length human Regnase-1 (iQue screener); details: streptavidin-immobilized beads; histograms FIG. 32
Protocol: as §1, §2

[6] = target: T2, Regnase-1 phosphorylation by IKKβ; test: Inhibitory activity of anti-Regnase-1 antibodies against Regnase-1 phosphorylation by IKKβ (Phos-tag gel, western blotting); assay type: biochemical; details: antibody at final concentrations of 16.7 μg/mL and 5.0 μg/mL; relative to Control group
Protocol: To a solution (ATP buffer) containing Kinase Assay Buffer III (manufactured by SignalChem) supplemented with 2 mM DTT, 100 μM sodium vanadate, 2 mM manganese chloride, and 15 μM ATP, dephosphorylated Regnase-1 was mixed at 150 nM. Four microliters of this solution and 4 μL of HEPES Buffered Saline containing 50 μg/mL or 15 μg/mL of anti-Regnase-1 antibody were mixed, and this was allowed to react for one hour. This reaction solution was mixed with 4 μL of ATP buffer containing 150 nM of each kinase (IKKβ or TBK1), and further reacted for one hour. After the reaction, 4 μL of 4× Laemmli Sample buffer (manufactured by Bio-Rad) was added and this mixture was incubated at 95° C. for five minutes for protein denaturation treatment. This sample was ice-cooled for three minutes, and 10 μL of it was added to SuperSep Phos-tag 7.5% 17 wells (manufactured by Wako) placed in EasySeparator (manufactured by Wako). […] Chemiluminescence was detected using ImageQuant LAS4000 mini (manufactured by GE Healthcare).
A band for phosphorylated Regnase-1 was detected due to treatment with each kinase (FIG. 33A). Band densities were measured with Image Quant-TL (manufactured by GE Healthcare). The relative value for the band density of the sample to which each compound was added was calculated, considering the band density of the kinase-added sample of the Control group, to which no compound was added, as 1. […]

Molecule | Regnase-1 phosphorylation upon IL-17A stimulation [1] | appearance of non-phosphorylated Regnase-1 during the recovery phase [2] | IL-6 mRNA stability / half-life [3] | binding to Peptide 1 compared with biotinylated BSA [4] | binding to FL_Reg1 compared with biotinylated BSA [5] | density of the phosphorylated Regnase-1 band in IKKβ treatment [6]
O=C(NCCCNc1nc(Nc2cccc(NC(=O)N3CCCC3)c2)ncc1I)c1cccs1 [BX795] | inhibited Regnase-1 phosphorylation | – | – | – | – | –
C=C1[C@@H](O)[C@@H]2O[C@]3(CC[C@H](/C=C/[C@@H](C)[C@@H]4CC(C)=C[C@@]5(O[C@H](C[C@@](C)(O)C(=O)O)CC[C@H]5O)O4)O3)CC[C@H]2O[C@@H]1[C@@H](O)C[C@H](C)[C@H]1O[C@@]2(CCCCO2)CC[C@H]1C [okadaic acid] | – | non-phosphorylated Regnase-1 did not appear | IL-6 mRNA stability was also enhanced; also recorded: dramatic increase in the half-life of IL-6 mRNA | – | – | –
REA0023: anti-Regnase-1 antibody; heavy chain SEQ ID NO: 20, light chain SEQ ID NO: 21 (antibody) heavy: QSLEESGGDLVKPGASLTLTCTDAGFSFSGVYWMHWVRQAPGKGLEWIACINAGSSGSTYYASWAKGRFTISKPSSTTVTLQMTSLTVADTATYFCARSFTLWGPGTLVTVSSGQPKAPSVFPLAPCCGDTPSSTVTLGCLVKGYLPEPVTVTWNSGTLTNGVRTFPSVRQSSGLYSLSSVVSVTSSSQPVTCNVAHPATNTKVDKTVAPSTCSKPTCPPPELLGGPSVFIFPPKPKDTLMISRTPEVTCVVVDVSQDDPEVQFTWYINNEQVRTARPPLREQQFNSTIRVVSTLPITHQDWLRGKEFKCKVHNKALPAPIEKTISKARGQPLEPKVYTMGPPREELSSRSVSLTCMINGFYPSDISVEWEKNGKAEDNYKTTPAVLDSDGSYFLYNKLSVPTSEWQRGDVFTCSVMHEALHNHYTQKSISRSPGK light: AVVTQTPSSVSAAVGGTVTIKCQSSQSVGNNNYLAWFQQKPGQPPKLLIYSASTLASGVPSRFSGSGSGTQFTLTISGVQCDDAATYYCLGGYDGDGEAFYVFGGGTEVVVKGDPVAPTVLIFPPAADQVATGTVTIVCVANKYFPDVTVTWEVDGTTQTTGIENSKTPQNSADCTYNLSSTLTLTSTQYNSHKEYTCKVTQGTTSVVQSFNRGDC | – | – | – | bound more strongly | bound more strongly | decreased
REA0027: anti-Regnase-1 antibody; heavy chain SEQ ID NO: 22, light chain SEQ ID NO: 23 (antibody) heavy: QSLEESGGDLVKPGASLTLTCTASGFGFSSSYWMHWVRQAPGKGLEWIACINAGSSTKTYYASWAKGRFTISKPSSTTVTLQMTSLTVADTATYFCAWSFNLWGPGTLVTVSSGQPKAPSVFPLAPCCGDTPSSTVTLGCLVKGYLPEPVTVTWNSGTLTNGVRTFPSVRQSSGLYSLSSVVSVTSSSQPVTCNVAHPATNTKVDKTVAPSTCSKPTCPPPELLGGPSVFIFPPKPKDTLMISRTPEVTCVVVDVSQDDPEVQFTWYINNEQVRTARPPLREQQFNSTIRVVSTLPITHQDWLRGKEFKCKVHNKALPAPIEKTISKARGQPLEPKVYTMGPPREELSSRSVSLTCMINGFYPSDISVEWEKNGKAEDNYKTTPAVLDSDGSYFLYNKLSVPTSEWQRGDVFTCSVMHEALHNHYTQKSISRSPGK light: AVVTQTPSSVSAAVGGTVTIKCQSSQSVGNNNWLAWFQQKPGQPPKLLIYSASTLASGVPSRFSGSGSGTQFTLTISGVQCDDAATYYCLGGYDGDGEAFYVFGGGTEVVVKGDPVAPTVLIFPPAADQVATGTVTIVCVANKYFPDVTVTWEVDGTTQTTGIENSKTPQNSADCTYNLSSTLTLTSTQYNSHKEYTCKVTQGTTSVVQSFNRGDC | – | – | – | bound more strongly | bound more strongly | decreased
